Experimental findings from patent publication US9176064B2, “Bisubstrate fluorescent probes for protein kinase CK2” (University of Tartu, priority 2012, dated 2015) are described below.

Some targets named below: SmMLCK (Homo sapiens, UniProt Q15746); IRAK1 (Homo sapiens, UniProt P51617); MARK1 (Homo sapiens, UniProt Q9P0L2); PRK2 (Homo sapiens, UniProt Q16513); CAMKKb (Homo sapiens, UniProt Q96RR4).
Holding throughout (experiment): Kinase panel residual activity
Common to all, as to assay type: biochemical
Holding throughout (conditions): compound at 1 micromolar

A further series deals with T1, MST2 (Homo sapiens, UniProt Q13188).
T1 sequence (Q13188 1-491): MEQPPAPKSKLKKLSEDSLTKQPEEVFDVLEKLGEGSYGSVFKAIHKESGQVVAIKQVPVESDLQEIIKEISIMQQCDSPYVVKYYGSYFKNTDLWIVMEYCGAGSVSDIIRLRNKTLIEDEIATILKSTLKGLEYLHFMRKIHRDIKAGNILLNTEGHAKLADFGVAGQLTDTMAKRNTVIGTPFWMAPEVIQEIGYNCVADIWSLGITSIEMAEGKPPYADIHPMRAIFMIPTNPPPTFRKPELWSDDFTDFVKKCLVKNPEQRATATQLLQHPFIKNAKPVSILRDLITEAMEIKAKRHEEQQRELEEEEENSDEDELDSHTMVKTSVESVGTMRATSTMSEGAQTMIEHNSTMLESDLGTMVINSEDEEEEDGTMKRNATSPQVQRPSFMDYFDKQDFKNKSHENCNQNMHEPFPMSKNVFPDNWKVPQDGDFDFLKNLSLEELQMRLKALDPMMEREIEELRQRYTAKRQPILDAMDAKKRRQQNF

In a further series the target is T2, IRAK4 (Homo sapiens, UniProt Q9NWZ3).
T2 sequence (Q9NWZ3 1-460): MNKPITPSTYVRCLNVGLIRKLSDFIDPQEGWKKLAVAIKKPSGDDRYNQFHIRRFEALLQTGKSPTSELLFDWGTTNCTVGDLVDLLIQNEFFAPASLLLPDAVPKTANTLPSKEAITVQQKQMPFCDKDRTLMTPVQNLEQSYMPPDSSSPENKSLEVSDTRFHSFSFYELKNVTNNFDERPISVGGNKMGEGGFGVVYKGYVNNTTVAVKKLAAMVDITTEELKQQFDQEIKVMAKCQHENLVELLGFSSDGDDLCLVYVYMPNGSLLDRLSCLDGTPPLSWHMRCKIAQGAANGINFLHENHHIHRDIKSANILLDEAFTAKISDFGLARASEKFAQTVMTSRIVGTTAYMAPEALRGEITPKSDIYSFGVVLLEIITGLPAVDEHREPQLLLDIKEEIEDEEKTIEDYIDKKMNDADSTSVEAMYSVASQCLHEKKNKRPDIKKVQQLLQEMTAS

A further series deals with T3, TGFBR1 (Homo sapiens, UniProt P36897).
T3 sequence (P36897 34-503): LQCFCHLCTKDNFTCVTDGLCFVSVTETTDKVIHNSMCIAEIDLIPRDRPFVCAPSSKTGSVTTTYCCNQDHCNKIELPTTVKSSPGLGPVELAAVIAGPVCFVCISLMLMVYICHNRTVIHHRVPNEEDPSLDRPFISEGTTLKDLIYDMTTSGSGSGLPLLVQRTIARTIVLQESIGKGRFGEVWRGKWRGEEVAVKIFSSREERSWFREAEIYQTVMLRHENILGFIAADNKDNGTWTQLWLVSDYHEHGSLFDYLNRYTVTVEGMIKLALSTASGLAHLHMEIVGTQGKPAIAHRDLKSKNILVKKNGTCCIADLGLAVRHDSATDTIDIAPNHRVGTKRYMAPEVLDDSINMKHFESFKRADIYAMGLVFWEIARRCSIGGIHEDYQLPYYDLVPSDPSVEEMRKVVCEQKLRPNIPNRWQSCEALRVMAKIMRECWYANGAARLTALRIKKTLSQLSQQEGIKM

In a further series the target is T4, LKB1 (Homo sapiens, UniProt Q15831).
T4 sequence (Q15831 1-433): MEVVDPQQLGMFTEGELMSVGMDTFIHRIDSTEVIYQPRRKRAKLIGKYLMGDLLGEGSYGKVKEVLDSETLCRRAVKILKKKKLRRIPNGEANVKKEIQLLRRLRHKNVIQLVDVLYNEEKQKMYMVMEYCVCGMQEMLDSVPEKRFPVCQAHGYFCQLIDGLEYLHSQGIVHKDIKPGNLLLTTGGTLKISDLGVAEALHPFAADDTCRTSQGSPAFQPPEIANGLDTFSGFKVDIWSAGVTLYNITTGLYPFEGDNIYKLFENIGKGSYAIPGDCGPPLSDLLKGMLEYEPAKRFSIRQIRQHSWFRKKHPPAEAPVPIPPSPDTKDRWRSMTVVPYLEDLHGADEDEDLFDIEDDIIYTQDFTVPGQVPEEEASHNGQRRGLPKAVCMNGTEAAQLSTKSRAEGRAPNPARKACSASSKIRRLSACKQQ
T4 sequence (Q7RTN6 1-431 partner): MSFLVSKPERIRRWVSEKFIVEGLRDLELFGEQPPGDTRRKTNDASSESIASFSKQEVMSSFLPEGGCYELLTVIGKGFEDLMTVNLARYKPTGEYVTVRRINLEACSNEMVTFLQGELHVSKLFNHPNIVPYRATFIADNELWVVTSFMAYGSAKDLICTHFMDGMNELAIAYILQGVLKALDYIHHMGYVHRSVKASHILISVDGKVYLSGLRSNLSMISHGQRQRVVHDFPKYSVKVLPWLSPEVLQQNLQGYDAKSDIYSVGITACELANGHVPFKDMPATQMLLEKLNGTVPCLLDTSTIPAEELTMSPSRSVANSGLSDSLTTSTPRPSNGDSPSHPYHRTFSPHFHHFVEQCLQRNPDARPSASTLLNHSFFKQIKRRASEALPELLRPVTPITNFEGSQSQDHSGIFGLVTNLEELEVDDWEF
T4 sequence (Q9Y376 1-341 partner): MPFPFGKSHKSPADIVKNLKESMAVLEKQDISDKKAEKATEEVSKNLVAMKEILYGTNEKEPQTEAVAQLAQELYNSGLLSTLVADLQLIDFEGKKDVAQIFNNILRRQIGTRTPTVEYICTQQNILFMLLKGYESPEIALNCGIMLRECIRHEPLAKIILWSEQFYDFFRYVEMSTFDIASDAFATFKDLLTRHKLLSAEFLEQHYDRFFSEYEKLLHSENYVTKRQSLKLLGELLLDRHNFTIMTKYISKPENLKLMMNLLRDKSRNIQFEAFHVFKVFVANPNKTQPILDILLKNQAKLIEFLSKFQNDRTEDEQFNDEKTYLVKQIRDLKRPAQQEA

Where a SMILES comes first, the peptide text is derived from it. [ ]: non-standard residue; d: D form. The star is where a group is joined. X1 = O=C(CCCCCCCn1cnc2c(Br)c(Br)c(Br)c(Br)c21)*

Sequence of SmMLCK (Q15746 923-1914): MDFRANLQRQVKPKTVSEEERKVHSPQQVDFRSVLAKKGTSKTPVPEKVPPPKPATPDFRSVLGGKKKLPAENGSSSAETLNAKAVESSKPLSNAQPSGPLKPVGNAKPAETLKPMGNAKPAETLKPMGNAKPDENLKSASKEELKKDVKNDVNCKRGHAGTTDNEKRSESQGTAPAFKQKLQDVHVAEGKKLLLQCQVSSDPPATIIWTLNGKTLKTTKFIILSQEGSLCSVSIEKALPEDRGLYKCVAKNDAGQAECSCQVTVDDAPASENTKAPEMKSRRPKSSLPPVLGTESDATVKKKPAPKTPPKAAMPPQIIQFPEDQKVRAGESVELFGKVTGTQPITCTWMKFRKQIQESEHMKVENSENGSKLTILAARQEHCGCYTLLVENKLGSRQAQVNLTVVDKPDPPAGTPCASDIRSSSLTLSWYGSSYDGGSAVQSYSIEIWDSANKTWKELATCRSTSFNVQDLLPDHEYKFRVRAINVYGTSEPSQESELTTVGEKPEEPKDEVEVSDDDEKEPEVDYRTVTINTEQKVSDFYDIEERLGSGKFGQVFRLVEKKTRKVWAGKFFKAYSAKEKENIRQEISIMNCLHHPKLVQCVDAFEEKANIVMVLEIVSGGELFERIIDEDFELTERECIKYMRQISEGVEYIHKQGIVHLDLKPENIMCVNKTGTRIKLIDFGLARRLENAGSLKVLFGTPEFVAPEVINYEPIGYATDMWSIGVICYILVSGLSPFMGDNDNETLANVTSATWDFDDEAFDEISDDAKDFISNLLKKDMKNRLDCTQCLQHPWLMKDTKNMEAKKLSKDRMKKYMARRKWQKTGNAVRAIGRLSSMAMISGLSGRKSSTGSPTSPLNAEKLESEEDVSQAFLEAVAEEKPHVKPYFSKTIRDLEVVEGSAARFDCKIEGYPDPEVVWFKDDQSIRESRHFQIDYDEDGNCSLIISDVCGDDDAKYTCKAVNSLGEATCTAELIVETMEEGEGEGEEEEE
Sequence of IRAK1 (P51617 whole entry, species assumed): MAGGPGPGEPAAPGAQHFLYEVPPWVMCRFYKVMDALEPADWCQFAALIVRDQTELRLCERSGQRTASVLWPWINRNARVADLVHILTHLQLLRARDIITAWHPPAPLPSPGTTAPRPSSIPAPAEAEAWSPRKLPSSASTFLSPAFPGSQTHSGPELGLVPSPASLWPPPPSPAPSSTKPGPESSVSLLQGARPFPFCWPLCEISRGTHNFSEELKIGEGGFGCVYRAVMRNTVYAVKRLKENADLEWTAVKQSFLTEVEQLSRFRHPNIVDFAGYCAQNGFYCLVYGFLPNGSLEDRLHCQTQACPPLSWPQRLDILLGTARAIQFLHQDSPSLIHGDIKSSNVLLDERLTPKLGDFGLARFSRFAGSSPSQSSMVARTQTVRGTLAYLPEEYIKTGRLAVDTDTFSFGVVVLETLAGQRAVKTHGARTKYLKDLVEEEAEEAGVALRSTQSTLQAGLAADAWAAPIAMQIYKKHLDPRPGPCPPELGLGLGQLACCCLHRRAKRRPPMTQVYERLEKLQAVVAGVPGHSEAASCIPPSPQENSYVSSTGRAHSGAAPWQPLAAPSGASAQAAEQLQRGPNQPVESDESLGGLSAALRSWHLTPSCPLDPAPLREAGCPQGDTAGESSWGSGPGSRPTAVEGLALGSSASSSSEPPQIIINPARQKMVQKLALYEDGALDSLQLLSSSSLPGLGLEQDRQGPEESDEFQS
Sequence of PRK2 (Q16513 whole entry, species assumed): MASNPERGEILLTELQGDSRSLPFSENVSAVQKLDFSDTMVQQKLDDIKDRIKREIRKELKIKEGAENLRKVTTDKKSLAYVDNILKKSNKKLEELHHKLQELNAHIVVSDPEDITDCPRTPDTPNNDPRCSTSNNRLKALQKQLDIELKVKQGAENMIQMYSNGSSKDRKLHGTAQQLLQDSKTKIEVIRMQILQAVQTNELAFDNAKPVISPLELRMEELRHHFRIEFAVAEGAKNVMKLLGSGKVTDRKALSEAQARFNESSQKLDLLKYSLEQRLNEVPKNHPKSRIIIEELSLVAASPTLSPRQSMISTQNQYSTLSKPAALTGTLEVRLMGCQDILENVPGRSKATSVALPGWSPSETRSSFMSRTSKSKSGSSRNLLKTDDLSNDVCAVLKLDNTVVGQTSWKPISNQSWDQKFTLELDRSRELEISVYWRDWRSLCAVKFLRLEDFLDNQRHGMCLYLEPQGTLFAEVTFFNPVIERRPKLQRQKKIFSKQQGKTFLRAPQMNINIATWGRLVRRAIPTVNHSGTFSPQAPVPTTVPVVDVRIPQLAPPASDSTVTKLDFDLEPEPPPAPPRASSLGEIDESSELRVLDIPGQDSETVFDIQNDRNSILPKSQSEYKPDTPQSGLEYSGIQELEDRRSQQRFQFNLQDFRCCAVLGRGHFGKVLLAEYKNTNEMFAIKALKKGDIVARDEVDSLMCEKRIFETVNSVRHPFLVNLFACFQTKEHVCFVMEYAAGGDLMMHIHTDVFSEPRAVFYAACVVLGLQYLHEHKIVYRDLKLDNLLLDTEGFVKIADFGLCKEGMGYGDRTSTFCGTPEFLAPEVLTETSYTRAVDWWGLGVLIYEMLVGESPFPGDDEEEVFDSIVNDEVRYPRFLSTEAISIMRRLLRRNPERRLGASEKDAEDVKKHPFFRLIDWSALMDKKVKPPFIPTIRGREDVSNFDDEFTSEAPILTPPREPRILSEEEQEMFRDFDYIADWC
Sequence of CAMKKb (Q96RR4 whole entry, species assumed): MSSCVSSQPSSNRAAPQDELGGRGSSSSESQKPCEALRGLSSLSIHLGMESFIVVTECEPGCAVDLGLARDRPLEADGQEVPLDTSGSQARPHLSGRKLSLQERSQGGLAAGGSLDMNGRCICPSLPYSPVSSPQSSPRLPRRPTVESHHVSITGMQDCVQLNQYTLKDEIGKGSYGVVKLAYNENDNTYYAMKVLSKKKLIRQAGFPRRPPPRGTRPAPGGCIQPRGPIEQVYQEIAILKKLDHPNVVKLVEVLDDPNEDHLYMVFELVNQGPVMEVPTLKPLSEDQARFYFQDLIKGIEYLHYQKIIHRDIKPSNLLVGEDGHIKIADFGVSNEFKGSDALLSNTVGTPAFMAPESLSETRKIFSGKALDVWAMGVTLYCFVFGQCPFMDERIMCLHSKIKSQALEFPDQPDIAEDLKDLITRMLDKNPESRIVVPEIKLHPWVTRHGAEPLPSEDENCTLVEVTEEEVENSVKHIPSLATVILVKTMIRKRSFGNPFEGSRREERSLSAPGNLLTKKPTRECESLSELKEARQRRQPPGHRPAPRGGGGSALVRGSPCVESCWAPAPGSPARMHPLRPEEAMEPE
Sequence of MARK1 (Q9P0L2 whole entry, species assumed): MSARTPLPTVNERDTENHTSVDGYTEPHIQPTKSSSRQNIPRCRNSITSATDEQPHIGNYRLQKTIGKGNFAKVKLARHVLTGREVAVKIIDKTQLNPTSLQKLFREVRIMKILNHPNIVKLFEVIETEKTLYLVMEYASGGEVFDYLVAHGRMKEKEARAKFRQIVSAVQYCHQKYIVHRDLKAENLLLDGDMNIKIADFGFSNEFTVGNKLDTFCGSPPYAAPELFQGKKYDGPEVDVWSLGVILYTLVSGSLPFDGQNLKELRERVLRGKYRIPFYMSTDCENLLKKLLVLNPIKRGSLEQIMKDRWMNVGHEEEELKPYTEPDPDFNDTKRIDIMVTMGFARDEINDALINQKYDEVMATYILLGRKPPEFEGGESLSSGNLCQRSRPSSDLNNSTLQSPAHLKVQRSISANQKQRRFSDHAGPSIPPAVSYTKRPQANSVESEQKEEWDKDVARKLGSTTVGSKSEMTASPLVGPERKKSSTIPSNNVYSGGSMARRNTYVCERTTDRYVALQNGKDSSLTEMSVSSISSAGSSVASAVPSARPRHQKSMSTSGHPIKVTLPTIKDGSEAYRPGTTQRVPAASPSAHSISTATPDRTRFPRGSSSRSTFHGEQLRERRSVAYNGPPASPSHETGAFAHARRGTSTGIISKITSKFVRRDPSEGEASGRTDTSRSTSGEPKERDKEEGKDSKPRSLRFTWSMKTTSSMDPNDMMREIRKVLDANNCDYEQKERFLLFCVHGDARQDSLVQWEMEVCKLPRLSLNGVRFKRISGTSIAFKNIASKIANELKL

By remaining activity is commonly meant the signal under treatment as a percentage of the control signal. Turning to `NCCCC[C@H](NC(=O)[C@H](CC(=O)O)NC(=O)[C@H](CC(=O)O)NC(=O)[C@H](CC(=O)O)NC(=O)[C@H](CC(=O)O)NC(=O)[C@H](CC(=O)O)NC(=O)[C@@H](CC(=O)O)NC(=O)CCCCCCCn1cnc2c(Br)c(Br)c(Br)c(Br)c21)C(=O)O` [TBBI-OcA-(D-Asp)-(L-Asp)5-(L-Lys)-OH] (X1-[dD]DDDDDK-OH), the remaining activity at 1 µM worked out at 99% in the series with MST2; 118% with IRAK4; 96% with SmMLCK; 98% with TGFBR1; 89% with IRAK1; 96% with LKB1. Further, the remaining activity at 1 µM with MARK1 was determined as 83%; with PRK2, 92%; with CAMKKb, 91%.
